Test results: patent US20230151068A1

biological target: biotinylated His-Avi-TEAD (194-411) (UniProt P28347); test: SSM screen, enrichment after two rounds of sorting

enrichment score | Binder
3.18 | GSPDEYIERAKECCKTGDIQCCLRYFEESGDPNVMLICLFCP (designed binder) [K14T variant of SEQ ID NO: 1]
-6.42 | GSPDEYIERAKECCKKGIIQCCLRYFEESGDPNVMLICLFCP (designed binder) [D16I variant of SEQ ID NO: 1]
-0.77 | GSPDEYIERAKECCKKGDIVCCLRYFEESGDPNVMLICLFCP (designed binder) [Q18V variant of SEQ ID NO: 1]
-0.99 | GSPDEYIERAKECCKIGDIQCCLRYFEESGDPNVMLICLFCP (designed binder) [K14I variant of SEQ ID NO: 1]
-2.99 | GSPDEYIERAKECCWKGDIQCCLRYFEESGDPNVMLICLFCP (designed binder) [K13W variant of SEQ ID NO: 1]
-1.53 | GSPDEYIERAKECCKKGDIACCLRYFEESGDPNVMLICLFCP (designed binder) [Q18A variant of SEQ ID NO: 1]
-4.21 | GSPDEYIERAKECCKKGDIFCCLRYFEESGDPNVMLICLFCP (designed binder) [Q18F variant of SEQ ID NO: 1]
-4.36 | GSPDEYIERAKECCKKGDAQCCLRYFEESGDPNVMLICLFCP (designed binder) [I17A variant of SEQ ID NO: 1]
-2.3 | GSPDEYIERAKECCKKGWIQCCLRYFEESGDPNVMLICLFCP (designed binder) [D16W variant of SEQ ID NO: 1]
-10.4 | GSPDEYIERAKECCKKGDWQCCLRYFEESGDPNVMLICLFCP (designed binder) [I17W variant of SEQ ID NO: 1]
1.28 | GSPDEYIERAKECCKKGDLQCCLRYFEESGDPNVMLICLFCP (designed binder) [I17L variant of SEQ ID NO: 1]
-1.96 | GSPDEYIERAKECCKKIDIQCCLRYFEESGDPNVMLICLFCP (designed binder) [G15I variant of SEQ ID NO: 1]
-1.65 | GSPDEYIERAKECCVKGDIQCCLRYFEESGDPNVMLICLFCP (designed binder) [K13V variant of SEQ ID NO: 1]
-11.4 | GSPDEYIERAKECCKKGDIICCLRYFEESGDPNVMLICLFCP (designed binder) [Q18I variant of SEQ ID NO: 1]
-0.59 | GSPDEYIERAKECCKKLDIQCCLRYFEESGDPNVMLICLFCP (designed binder) [G15L variant of SEQ ID NO: 1]
-11.1 | GSPDEYIERAKECCKKGDIWCCLRYFEESGDPNVMLICLFCP (designed binder) [Q18W variant of SEQ ID NO: 1]
-0.5 | GSPDEYIERAKECCKFGDIQCCLRYFEESGDPNVMLICLFCP (designed binder) [K14F variant of SEQ ID NO: 1]
-2.64 | GSPDEYIERAKECCKWGDIQCCLRYFEESGDPNVMLICLFCP (designed binder) [K14W variant of SEQ ID NO: 1]
2.65 | GSPDEYIERAKECCKKTDIQCCLRYFEESGDPNVMLICLFCP (designed binder) [G15T variant of SEQ ID NO: 1]
-5.23 | GSPDEYIERAKECCKKGAIQCCLRYFEESGDPNVMLICLFCP (designed binder) [D16A variant of SEQ ID NO: 1]

enrichment score | Binder
0.08 | GSPDEYIERAKECCKVGDIQCCLRYFEESGDPNVMLICLFCP (designed binder) [K14V variant of SEQ ID NO: 1]
0.99 | GSPDEYIERAKECCKKVDIQCCLRYFEESGDPNVMLICLFCP (designed binder) [G15V variant of SEQ ID NO: 1]
-3.5 | GSPDEYIERAKECCKKGDFQCCLRYFEESGDPNVMLICLFCP (designed binder) [I17F variant of SEQ ID NO: 1]
-8.99 | GSPDEYIERAKECCKKGLIQCCLRYFEESGDPNVMLICLFCP (designed binder) [D16L variant of SEQ ID NO: 1]
1.89 | GSPDEYIERAKECCKKADIQCCLRYFEESGDPNVMLICLFCP (designed binder) [G15A variant of SEQ ID NO: 1]
-1.86 | GSPDEYIERAKECCKKGFIQCCLRYFEESGDPNVMLICLFCP (designed binder) [D16F variant of SEQ ID NO: 1]
4.17 | GSPDEYIERAKECCKKGDVQCCLRYFEESGDPNVMLICLFCP (designed binder) [I17V variant of SEQ ID NO: 1]
-4.75 | GSPDEYIERAKECCKKWDIQCCLRYFEESGDPNVMLICLFCP (designed binder) [G15W variant of SEQ ID NO: 1]
-1.98 | GSPDEYIERAKECCKKFDIQCCLRYFEESGDPNVMLICLFCP (designed binder) [G15F variant of SEQ ID NO: 1]
-2.28 | GSPDEYIERAKECCKKGDITCCLRYFEESGDPNVMLICLFCP (designed binder) [Q18T variant of SEQ ID NO: 1]
-1.37 | GSPDEYIERAKECCLKGDIQCCLRYFEESGDPNVMLICLFCP (designed binder) [K13L variant of SEQ ID NO: 1]
-0.89 | GSPDEYIERAKECCKLGDIQCCLRYFEESGDPNVMLICLFCP (designed binder) [K14L variant of SEQ ID NO: 1]
-7.81 | GSPDEYIERAKECCKKGVIQCCLRYFEESGDPNVMLICLFCP (designed binder) [D16V variant of SEQ ID NO: 1]
-1.54 | GSPDEYIERAKECCIKGDIQCCLRYFEESGDPNVMLICLFCP (designed binder) [K13I variant of SEQ ID NO: 1]
2.21 | GSPDEYIERAKECCKKGDTQCCLRYFEESGDPNVMLICLFCP (designed binder) [I17T variant of SEQ ID NO: 1]
-0.22 | GSPDEYIERAKECCKAGDIQCCLRYFEESGDPNVMLICLFCP (designed binder) [K14A variant of SEQ ID NO: 1]
-4.91 | GSPDEYIERAKECCKKGDILCCLRYFEESGDPNVMLICLFCP (designed binder) [Q18L variant of SEQ ID NO: 1]
-10 | GSPDEYIERAKECCKKGTIQCCLRYFEESGDPNVMLICLFCP (designed binder) [D16T variant of SEQ ID NO: 1]
-1.14 | GSPDEYIERAKECCFKGDIQCCLRYFEESGDPNVMLICLFCP (designed binder) [K13F variant of SEQ ID NO: 1]
1.94 | GSPDEYIERAKECCAKGDIQCCLRYFEESGDPNVMLICLFCP (designed binder) [K13A variant of SEQ ID NO: 1]
